Laboratory results: the MegaScale stability set (Tsuboyama et al. 2023)

B1: HHH_rd2_0155 (parent)
chain: PPDDERKKAEKAARSGNEEKAREILERLGYSEDEARELAKRLR

Variants of: B1
Test: folding stability dG (cDNA display proteolysis); higher = more stable
Details: PBS, room temperature

Folding stability dG [kcal/mol] of substitutions, site by site:
R36: M 1.57; V 1.26; C 0.956; A 1.56; N 1.14; S 1.27; W 1.68; E 1.23; Y 1.64; F 1.56; I 1.57; L 1.51; Q 1.34; G 0.823; K 1.7; P -0.165; H 1.17; D 0.859; T 1.31
D33: E 2.19; S 2.13; H 1.86; Y 1.91; Q 2.09; A 2.25; G 1.59; P 1.55; L 1.85; T 1.92; V 1.71; K 1.92; N 1.79; M 1.8; F 1.77; I 1.87; W 1.83; R 1.79
E18: Y 2.25
E37: D 1.73; C 2.36; F 1.98; A 2.27
L28: W 1.47; N 0.822; I 1.7; E 0.577; F 1.2; V 0.87; T 0.615; D 0.418; A 1.54; H 0.699; K 0.443; C 1.85; S 0.685; R 0.697; G 0.647; M 2.29; P 0.261; Y 0.983; Q 0.844
R22: F 1.09; D 0.179; L 1.4; I 2.21; E 0.77; Q 1.41; S 1; N 0.74; H 0.903; K 1.44; G 0.568; P 0.374; W 1.13; M 1.88; Y 1.33; V 2.21; T 1.27; A 1.58
A35: H 0.728; Q 0.88; R 0.564; D 0.38; E 0.141; L 1.02; G 0.605; Y 0.905; N 0.635; I 1.42; V 0.99; S 1.25; W 1; T 0.991; P -0.246; K 0.591; M 1.02; F 0.989
K20: A 2.1; S 1.61; F 1.92; M 2.19; D 1.33; I 1.9; W 1.98; N 1.21; R 1.89; H 1.73; G 1.66; L 2.97; E 2.11; V 2.05; T 1.77; Q 1.86; P 0.917; Y 2.11
I24: V 0.856; E 0.689; D 0.375; F 1.3; M 1.43; Q 0.718; T 0.469; R 0.756; N 0.514; L 1.57; G 0.167; P 0.158; H 1.11; S 0.659; W 1.38; K 0.671; A 0.975; Y 1.44
E19: W 1.94; P 1.61; F 1.91; T 2.05; C 2.27; N 1.81; M 2.22; I 2.05; A 2.3; V 1.95; Y 1.79; L 2.15; H 1.7; K 2.18; R 2.16; Q 2.05; G 1.6; S 1.9; D 2.03
E23: T 1.69; M 2.03; H 1.85; C 2.35; R 2.21; I 1.93; V 1.72; P 0.763; Y 1.68; N 1.52; A 2.06; S 1.73; D 1.54; W 1.83; F 1.61; Q 2.18; G 1.4; L 2.19; K 2.12
G29: R 0.281; K 0.226; Q 0.091; H 0.665; E 0.491; F 0.708; S 0.474; M 0.484; N 0.552; I 0.244; A 0.3; D 0.445; Y 0.196; P -0.509; W 0.361; L -0.221; T 0.143; V 0.455
E34: N 1.21; L 1.35; S 1.25; T 1.34; P 0.438; H 1.38; V 1.39; Q 1.81; I 1.44; K 1.25; F 1.39; G 0.998; A 1.78; M 1.59; W 1.08; Y 1.51; R 1.4; D 1.87; C 1.92
L25: R 0.127; H -0.026; K -0.071; D 0.2; G 0.372; T 0.034; F 2.35; V 0.267; W 1.64; A 0.215; N 0.253; E 0.37; M 0.884; I 0.435; Q 0.444; P -0.039; S 0.333; Y 1.87
A21: Y 1.52; E 0.697; N 0.934; K 0.641; G 0.961; M 1.46; H 0.916; Q 0.924; V 1.27; P 0.632; S 1.23; D 0.869; L 1.81; C 1.87; I 1.68; F 1.63; R 0.974; T 1.08
E26: Y 1.49; T 1.93; W 0.866; A 1.73; G 1.5; D 0.509; S 1.72; H 1.82; M 3.05; I 2.65; N 1.22; R 2.65; F 1.47; L 2.56; P -0.06; Q 2.39; V 2.61; K 2.41
Y30: D 0.243; R 0.36; I 1.06; G 0.222; F 1.94; M 1.74; A 0.811; K 0.407; S 0.426; V 0.808; Q 0.238; H 1.13; W 1.34; P 0.57; T 0.175; L 1.79; E 0.197
R27: A 2.07; K 2.14; P 0.534; Y 1.41; F 1.39; H 1.6; I 1.28; D 0.997; Q 1.89; V 1.01; N 1.7; M 1.7; W 1.44; T 1.47; L 1.81; E 1.1; S 1.94; G 1.89
E32: R 1.96; I 1.88; G 1.49; H 1.97; V 2; A 2.33; W 1.42; F 1.96; T 1.93; C 1.86; Y 1.94; Q 1.99; L 1.66; M 1.78; K 2.21; P 2.48; S 2.08; D 1.4; N 1.51
S31: N 1.66; F 0.694; V 0.347; P 1.46; Q 1.2; K 1.35; R 1.07; Y 0.287; L 0.779; W 0.564; D 1.36; G 1.44; A 1.28; I 0.504; H 1.02; E 1.03; T 2.13; M 1.03
